Assay results: article PMC3927786 (Chemistry & biology, 2013)

Biological target: the molecule itself
Test: SEC

B1: pimeloyl-CoA ligase (BioW) (enzyme, UniProt P53559 1-259, looked up)
chain: MMQEETFYSVRMRASMNGSHEDGGKHISGGERLIPFHEMKHTVNALLEKGLSHSRGKPDFMQIQFEEVHESIKTIQPLPVHTNEVSCPEEGQKLARLLLEKEGVSRDVIEKAYEQIPEWSDVRGAVLFDIHTGKRMDQTKEKGVRVSRMDWPDANFEKWALHSHVPAHSRIKEALALASKVSRHPAVVAELCWSDDPDYITGYVAGKKMGYQRITAMKEYGTEEGCRVFFIDGSNDVNTYIHDLEKQPILIEWEEDHDS
stoichiometry N: 2
